From publication PMC9788556 (2022)
Where two headings read alike, the source gives them in different places.

T1: Pfs230 D1D2 (aa 587–889) (Plasmodium falciparum, UniProt P68874 587-889)
T1 chain: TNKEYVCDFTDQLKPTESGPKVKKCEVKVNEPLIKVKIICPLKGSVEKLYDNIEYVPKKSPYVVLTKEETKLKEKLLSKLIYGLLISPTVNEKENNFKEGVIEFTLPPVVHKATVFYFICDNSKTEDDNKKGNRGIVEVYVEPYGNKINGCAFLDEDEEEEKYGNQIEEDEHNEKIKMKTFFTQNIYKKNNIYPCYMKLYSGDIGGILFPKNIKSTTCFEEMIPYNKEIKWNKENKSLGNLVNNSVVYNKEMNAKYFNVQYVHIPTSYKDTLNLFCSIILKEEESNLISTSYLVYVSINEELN

T2: Pfs230 D1 (aa 587–731) (Plasmodium falciparum, UniProt P68874 587-731)
T2 chain: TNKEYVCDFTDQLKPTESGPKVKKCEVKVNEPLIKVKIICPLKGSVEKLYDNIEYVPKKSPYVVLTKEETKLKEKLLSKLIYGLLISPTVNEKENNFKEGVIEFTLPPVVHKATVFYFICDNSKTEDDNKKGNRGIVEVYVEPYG

T3: Pfs230 Pro-D1D2 (aa 532–889) (Plasmodium falciparum, UniProt P68874 532-889)
T3 chain: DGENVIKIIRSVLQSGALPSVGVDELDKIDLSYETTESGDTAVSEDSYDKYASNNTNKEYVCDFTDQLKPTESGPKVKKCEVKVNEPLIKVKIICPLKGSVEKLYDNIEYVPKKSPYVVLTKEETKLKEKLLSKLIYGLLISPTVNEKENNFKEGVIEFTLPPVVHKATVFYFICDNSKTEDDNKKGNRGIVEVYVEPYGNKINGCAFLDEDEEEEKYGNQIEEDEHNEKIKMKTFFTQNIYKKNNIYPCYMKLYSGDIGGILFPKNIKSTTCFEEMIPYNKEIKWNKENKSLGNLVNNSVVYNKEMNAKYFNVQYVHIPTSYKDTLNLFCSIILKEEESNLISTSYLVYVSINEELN


Key:
Pfs230 D1D2 (aa 587–889) [1] = target: T1, Pfs230 D1D2 (aa 587–889); assay: BLI
Pfs230 D1 (aa 587–731) [2] = target: T2, Pfs230 D1 (aa 587–731); assay: BLI
Pfs230 D1D2 (aa 587–889) [3] = target: T1, Pfs230 D1D2 (aa 587–889); assay: BLI
Pfs230 D1 (aa 587–731) [4] = target: T2, Pfs230 D1 (aa 587–731); assay: BLI
Pfs230 D1D2 (aa 587–889) [5] = target: T1, Pfs230 D1D2 (aa 587–889); assay: BLI; representative curve
Pfs230 D1 (aa 587–731) [6] = target: T2, Pfs230 D1 (aa 587–731); assay: BLI; representative curve
Pfs230 D1D2 (aa 587–889) [7] = target: T1, Pfs230 D1D2 (aa 587–889); assay: BLI
[8] = target: T3, Pfs230 Pro-D1D2 (aa 532–889); assay: BLI
Pfs230 D1D2 (aa 587–889) [9] = target: T1, Pfs230 D1D2 (aa 587–889); assay: BLI; representative curve
[10] = target: T3, Pfs230 Pro-D1D2 (aa 532–889); assay: BLI; only three curves fitted
[11] = target: T3, Pfs230 Pro-D1D2 (aa 532–889); assay: BLI; representative curve; only three curves fitted

Binder	koff (Pfs230 D1D2 (aa 587–889) [1])	koff (Pfs230 D1 (aa 587–731) [2])	Kd (Pfs230 D1D2 (aa 587–889) [3])	Kd (Pfs230 D1 (aa 587–731) [4])	Kd (Pfs230 D1D2 (aa 587–889) [5])	Kd (Pfs230 D1 (aa 587–731) [6])	koff (Pfs230 D1D2 (aa 587–889) [7])	koff [8]	Kd (Pfs230 D1D2 (aa 587–889) [9])	koff [10]	Kd [11]
nanobody A10 (VHH) VHH: QVQLQESGGGLVQAGSSLRLSCAASGGTFSNYAMGWFRQAPGKEREFVAAIGWSGGTYYTDSVEGRFTISRDNAKNTVYLQMNSLKPEDTAVYYCAAKRSGSSWSERGYDYWGQGTQVTVSS	0.000805 s⁻¹	0.000788 s⁻¹	5.87 nM	3.18 nM	5.5 nM	4.56 nM					
nanobody G2 (VHH) VHH: QVQLQESGGGLVQAGGSLRLSCAASGRTFSNYFMGWFRQAPGKEREFVAAVSWSGGSTYYADSVKGRLTISRDNAKNTVYLQMNSLKPEDTAVYYCAAGERYFPMEPRRGYDYWGQGTQVTVSS	0.00016 s⁻¹	0.000179 s⁻¹	1.11 nM	0.49 nM	1.07 nM	0.36 nM					
nanobody A11 (VHH) VHH: QVQLQESGGGLVQPGESLRLSCAASGRTSSSYAMGWFRQAPGKEREFVASISWSGGSTYYADSVKGRFTLSRDNAKNTVYLQMNSLKPEDTAVYYCAADGIFYSDYPLSVDDFHSWGQGTQVTVSS	0.000152 s⁻¹	0.00039 s⁻¹	1.43 nM	1.56 nM	1.25 nM	1.47 nM					
nanobody F10 (VHH) VHH: QVQLQESGGGLVQAGGSLRLSCAASGRTFSDYFMGWFRQAPGKEREFVAAVSWSGGSTYYADSVKGRFTISRDNAKNTVFLQMNSLKPEDTAVYYCAGGGSYYPMSPYDGMDYWGKGTQVTVSS	8.19e-05 s⁻¹	4.8e-05 s⁻¹	0.45 nM	0.12 nM	0.4 nM	0.26 nM					
nanobody E1 (VHH) VHH: QVQLQESGGGLVQPGGSLRLSCAASGRTFSSYFMGWFRQAPGKGRVFVASISWSGGSTYYADSVKGRFTISRDNAENTVYLQMNSLKPEDTAVYYCAAGTRATPLDWASGMDYWGKGTQVTVSS	0.000409 s⁻¹	0.00019 s⁻¹	3.91 nM	0.75 nM	3.58 nM	0.43 nM					
F5-Fc (Fc fusion) QVQLQESGGGLVQPGGSLRLSCAASGFTLDRYAIGWFRQAPGKEREGVSCISSSDGSTYYADSVKGRFTISRDNAKNTVYLQMNSLKPEDTAVYYCARDHGPCTVLADILYDYGMDYWGKGTQVTVSS							0.000351 s⁻¹	0.000644 s⁻¹	0.66 nM		
nanobody F5 (VHH) VHH: QVQLQESGGGLVQPGGSLRLSCAASGFTLDRYAIGWFRQAPGKEREGVSCISSSDGSTYYADSVKGRFTISRDNAKNTVYLQMNSLKPEDTAVYYCARDHGPCTVLADILYDYGMDYWGKGTQVTVSS	0.000313 s⁻¹	0.000316 s⁻¹	1.22 nM	0.81 nM	1.13 nM	1.01 nM					
nanobody D11 (VHH) VHH: QVQLQESGGGLVQAGSSLRLSCAASGRTFSSYAMGWFRQAPGKEREFVAAIGWSGGTYYTDSVEGRFTISRDNAENTVYLQMNSLKPEDTAVYYCAAKASGSSWSERGYDYWGQGTQVTVSS	0.00262 s⁻¹	0.00256 s⁻¹	16.1 nM	8.31 nM	15.5 nM	10.8 nM					
F10-Fc (Fc fusion) QVQLQESGGGLVQAGGSLRLSCAASGRTFSDYFMGWFRQAPGKEREFVAAVSWSGGSTYYADSVKGRFTISRDNAKNTVFLQMNSLKPEDTAVYYCAGGGSYYPMSPYDGMDYWGKGTQVTVSS							3.99e-05 s⁻¹			0.00171 s⁻¹	446 nM
nanobody B4 (VHH) VHH: QVQLQESGGGLVQPGGSLRLSCAASGFTLDYYGIGWFRQAPGKEREGVSCISSSDGSTYYADSVKGRFTISRDNAKNTVYLQMNSLKPEDTAVYYCAADLTGIGCTTAQAMGVIGDFGDFGSWGQGTQVTVSS	0.00152 s⁻¹	0.00138 s⁻¹	4.8 nM	1.71 nM	4.62 nM	2 nM					
nanobody D6 (VHH) VHH: QVQLQESGGGLVQAGDSLRLSCAASGRTFSSYFMGWFRQAPGKEREFVAAISWSGGSTYYADSVKGRFTISRDNVKNTVYLQMNSLEPEDAAVYYCAGGGSYYPMSPRNGMDYWGKGTQVTVSS	0.000108 s⁻¹	0.000158 s⁻¹	0.63 nM	0.39 nM	0.51 nM	0.79 nM					
nanobody D1 (VHH) VHH: QVQLQESGGGLVQAGDSLRLSCTASGRTFSNHAMGWFRQAPGKEREIVAVIFGTGRNSWYVDSVKGRFTISRDNAKNTVALQMNRLKPEDTAVYYCASGRTWYSGSSMAEYDYWGQGTQVTVSS		3.72e-05 s⁻¹		0.14 nM		0.29 nM					
nanobody E11 (VHH) VHH: QVQLQESGGGLVQPGGSLRLSCAASGFTSDYYGIGWFRQAPGKEREGVACISSSDGSTYYADSVKGRSTISRDNAKNTVYLQMNSLKPEDTAVYYCAADLSGIGCTTAQAMDVIGDFGDFGSWGQGTQVTVSS	0.000733 s⁻¹	0.000539 s⁻¹	2.54 nM	2.61 nM	2.4 nM	3.16 nM					
nanobody G5 (VHH) VHH: QVQLQESGGGLVQAGGSLRLSCAASGRTFNDYAMYWFRQAPGKEREFVADITWSGSSTYYADSVKGRFTISRDNAKNTVFLQMNSLKPEDTALYYCAADSRYYGIGIGTPRYWGQGTQVTVSS	0.000579 s⁻¹	0.000635 s⁻¹	9.09 nM	3.36 nM	8.18 nM	3.25 nM					
